Test results as given in patent US20100104509A1 (Bristol-Myers Squibb, published 2010).
Where a chain is given by its changes, count along the chain named.

T1: human CD19 expressed on the cell surface (human, UniProt P15391 20-556)
T1 construct: CHO cells were transfected with the full-length cDNA encoding the transmembrane form of CD19; Raji, Daudi and ARH-77 cells carry endogenous CD19; also called CD19 on Raji B tumor cells; CD19 on Daudi B tumor cells
T1 sequence: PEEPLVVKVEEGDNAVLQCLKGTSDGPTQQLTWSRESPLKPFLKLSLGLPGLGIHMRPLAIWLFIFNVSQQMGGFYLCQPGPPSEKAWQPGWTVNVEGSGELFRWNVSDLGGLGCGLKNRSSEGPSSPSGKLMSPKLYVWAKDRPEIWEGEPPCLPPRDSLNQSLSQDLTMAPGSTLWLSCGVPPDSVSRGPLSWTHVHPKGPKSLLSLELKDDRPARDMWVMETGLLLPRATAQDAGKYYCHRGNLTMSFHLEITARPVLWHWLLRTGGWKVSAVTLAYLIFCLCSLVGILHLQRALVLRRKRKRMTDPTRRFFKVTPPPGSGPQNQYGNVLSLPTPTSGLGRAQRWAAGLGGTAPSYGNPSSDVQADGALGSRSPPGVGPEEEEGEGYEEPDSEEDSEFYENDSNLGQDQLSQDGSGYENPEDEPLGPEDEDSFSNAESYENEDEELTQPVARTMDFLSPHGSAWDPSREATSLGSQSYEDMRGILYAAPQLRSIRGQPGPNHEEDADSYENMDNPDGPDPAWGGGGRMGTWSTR

B1: human monoclonal antibody 47G4 (antibody, V domains shown)
VH: QVQLVQSGAEVKKPGSSVKVSCKDSGGTFSSYAISWVRQAPGQGLEWMGGIIPIFGTTNYAQQFQGRVTITADESTSTAYMELSSLRSEDTAVYYCAREAVAADWLDPWGQGTLVTVSS
VL: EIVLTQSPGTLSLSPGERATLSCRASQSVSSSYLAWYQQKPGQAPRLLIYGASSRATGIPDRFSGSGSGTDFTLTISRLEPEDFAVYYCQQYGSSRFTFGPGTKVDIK
notes: Human kappa antibody; It was 125I-labelled in the Scatchard assay; also called HuMAb 47G4; CD19 HuMAb 47G4
B2: human monoclonal antibody 21D4 (antibody, V domains shown)
VH: EVQLVQSGAEVKKPGESLKISCKGSGYSFSSSWIGWVRQMPGKGLEWMGIIYPDDSDTRYSPSFQGQVTISADKSIRTAYLQWSSLKASDTAMYYCARHVTMIWGVIIDFWGQGTLVTVSS
VL: AIQLTQSPSSLSASVGDRVTITCRASQGISSALAWYQQKPGKAPKLLIYDASSLESGVPSRFSGSGSGTDFTLTISSLQPEDFATYYCQQFNSYPYTFGQGTKLEIK
notes: Fully human antibody from a KM mouse hybridoma, kappa light chain; also called HuMAb 21D4; parental anti-CD19 antibody 21D4
B3: human monoclonal antibody 3C10 (antibody, V domains shown)
VH: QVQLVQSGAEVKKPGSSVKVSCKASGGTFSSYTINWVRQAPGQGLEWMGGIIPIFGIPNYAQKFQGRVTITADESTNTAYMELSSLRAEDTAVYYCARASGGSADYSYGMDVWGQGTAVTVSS
VL: B2 VL with A1D, L4M, A32W, G41E, L46S, D50A, E55Q, F91Y, N92K, S93R
B4: 5G7-N19K (antibody, V domains shown)
VH: B2 VH with S30T, S32Y, D54G, R77N, H99G, T101S, I108M, F110V, L116T
VL: B2 VL with Y96W, L104V
notes: also called 5G7 with N-I-S changed to K-I-S
B5: human monoclonal antibody 13F1 (antibody, V domains shown)
VH: EVQLVQSGAEVKKPGESLQISCKGSGYTFTNYWIAWVRQMPGKGLEWMGIIYPGDSDTRYSPSFQGQVTISADKSISTAYLQWSGLKASDTAMYYCARQGYSSGWRSYYGMGVWGQGTTVTVSS
VL: B2 VL with Y96H
B6: 5G7-N19Q (antibody, V domains shown)
VH: B2 VH with K19Q, S30T, S32Y, D54G, R77N, H99G, T101S, I108M, F110V, L116T
VL: B2 VL with Y96W, L104V
notes: Glycosylation-site variant of 5G7; also called 5G7 with N-I-S changed to Q-I-S
B7: human monoclonal antibody 5G7 (antibody, V domains shown)
VH: B2 VH with K19N, S30T, S32Y, D54G, R77N, H99G, T101S, I108M, F110V, L116T
VL: B2 VL with Y96W, L104V
modifications: N-linked carbohydrate in the variable (Fab) region at the N-I-S motif starting at position 19
B8: human monoclonal antibody 21D4a (antibody, V domains shown)
VH: B2 VH
VL: B2 VL with Y96F, Q100P, L104V, E105D
notes: Same heavy chain as 21D4, paired with the second light chain made by the 21D4 hybridoma

molecular target: T1, human CD19 expressed on the cell surface; experiment: Scatchard analysis; 125I-labelled antibody on Raji cells, 4 °C
Description: Raji cells were obtained from ATCC (Accession #CCL-86) and grown in RPMI containing 10% fetal bovine serum (FBS). The cells were washed twice with RPMI containing 10% FBS at 4° C. and the cells were adjusted to 4×10⁷ cells/ml in RPMI media containing 10% fetal bovine serum (binding buffer containing 24 mM Tris pH 7.2, 137 mM NaCl, 2.7 mN KCl, 2 mM glucose, 1 mM CaCl₂, 1 mM MgCl₂, 0.1% BSA). Millipore plates (MAFB NOB) were coated with 1% nonfat dry milk in water and stored a 4° C. overnight. The plates were washed with binding buffer and 25 μl of unlabeled antibody (1000-fold excess) in binding buffer was added to control wells in a Millipore 96 well glass fiber filter plate (non-specific binding NSB). Twenty-five microliters of buffer alone was added to the maximum binding control well (total binding). […] The plates were incubated for 2 hours at 200 RPM on a shaker at 4° C. At the completion of the incubation the Millipore plates were washed three times with 0.2 ml of cold wash buffer (24 mM Tris pH 7.2, 500 mM NaCl, 2.7 mN KCl, 2 mM glucose, 1 mM CaCl₂, 1 mM MgCl₂, 0.1% BSA). The filters were removed and counted in a gamma counter. Evaluation of equilibrium binding was performed using single site binding parameters with the Prism software (San Diego, Calif.).

Question: For B1, which Kd is on record?
Answer: Its Kd is about 12 nM.

Question: With B2 as the binder, how does the Kd read?
Answer: Its Kd is about 2.14 nM.

molecular target: T1, human CD19 expressed on the cell surface; experiment: Flow cytometry on CHO cells transfected with human CD19, GMFI
Description: (§1) Binding of the CD19 HuMAbs by flow cytometry to the B cell tumor lines Raji and Daudi, or to a CHO-CD19 transfected cell line was assessed. CHO cells were transfected with an expression plasmid containing the full length cDNA encoding the transmembrane form of CD19. […] A known murine anti-CD19 antibody was used as a positive control. The cells were washed and detected by either a phycoerythrin-labeled anti-human or anti-mouse secondary antibody and analyzed by flow cytometry. The results for binding to the CHO-CD19 cell line, Daudi B cell line, Raji B cell line and an expanded binding set against the Raji B cell line are shown in FIGS. 25A, 25B, 25C and 25D, respectively. […] All results are shown as measured by the geometric mean fluorescent intensity (GMFI) of staining.

Question: Which “EC50 (read off the curve)” value does the source give for B2 here?
Answer: The value was about 0.1 µg/mL.

molecular target: T1, human CD19 expressed on the cell surface; experiment: Raji direct binding FACS, Geo Mean; unit from the concentration axis
Description: as §1

Question: With B3 as the binder, how does the EC50 read?
Answer: The EC50 was 0.24 µg/mL.

Question: Which EC50 does the source give for B4 here?
Answer: The EC50 was 0.224 µg/mL.

Question: With B5 as the binder, how does the EC50 read?
Answer: Its EC50 is 0.266 µg/mL.

Question: For B6, which EC50 is on record?
Answer: Its EC50 is 0.217 µg/mL.

Question: With B7 as the binder, how does the EC50 read?
Answer: Its EC50 is 0.188 µg/mL.

Question: For B8, which EC50 is on record?
Answer: Its EC50 is 0.129 µg/mL.

Question: With B2 as the binder, how does the EC50 read?
Answer: Its EC50 is 0.141 µg/mL.

molecular target: T1, human CD19 expressed on the cell surface; experiment: FACS competition on Raji cells: unlabeled antibody titrated against biotinylated 21D4 at 0.3 ug/mL, Geo Mean (PE); unit from the concentration axis

Question: How did the EC50 turn out when B3 was run?
Answer: Its EC50 is 0.628 nM.

Question: For B4, which EC50 is on record?
Answer: Its EC50 is 2.1 nM.

Question: B5 was tested. Which EC50 did it give?
Answer: The EC50 was 1.99 nM.

Question: For B6, which EC50 is on record?
Answer: The EC50 was 2.16 nM.

Question: Which EC50 does the source give for B7 here?
Answer: Its EC50 is 2.45 nM.

Question: For B8, which EC50 is on record?
Answer: Its EC50 is 0.694 nM.

Question: B2 was tested. Which EC50 did it give?
Answer: Its EC50 is 0.655 nM.

molecular target: T1, human CD19 expressed on the cell surface; experiment: FACS competition on Raji cells: unlabeled antibody titrated against biotinylated 21D4a at 0.3 ug/mL, Geo Mean (PE); unit from the concentration axis

Question: Which EC50 does the source give for B3 here?
Answer: Its EC50 is 0.686 nM.

Question: For B4, which EC50 is on record?
Answer: The EC50 was 2.38 nM.

Question: With B5 as the binder, how does the EC50 read?
Answer: The EC50 was 1.97 nM.

Question: Which EC50 does the source give for B6 here?
Answer: The EC50 was 2.63 nM.

Question: For B7, which EC50 is on record?
Answer: Its EC50 is 2.85 nM.

Question: B8 was tested. Which EC50 did it give?
Answer: The EC50 was 0.767 nM.

Question: Which EC50 does the source give for B2 here?
Answer: Its EC50 is 0.832 nM.
